Reference: paper PMC8905165

Target: GMPCPP microtubules containing 7% rhodamine-tubulin
Experiment: single-molecule TIRF microscopy on immobilised microtubules; GMPCPP microtubules held on the coverslip by anti-β-tubulin antibodies, motors in solution (CENP-E483-2mNeon 50 nM, CENP-E483LZ-2mNeon 5 nM, CENP-E754-2mNeon 3.5 nM, CENP-EFL-mNeon 12.5 nM; landing rates at 3.5 nM); 80 mM PIPES pH 6.9, 5 mM MgCl2, 2 mM ATP, 1 mM DTT, oxygen scavenger mix; 30°C; residency time is the decay constant of a single-exponential fit

| Substance | landing rate (events µm^−1 min^−1) | residency time on the microtubule [s] |
| --- | --- | --- |
| full-length human CENP-E-mNeonGreen, Q02224 1-2701 | 0.147 | 37.1 |
| CENP-E483LZ-2mNeon (from UniProt Q02224 1-483) |  | 6.36 |
